Test [1] addresses AMMO1, human gH/gL-specific neutralizing antibody (recombinant IgG1) (human). Put plainly: SPR.
The target in another test is AMMO1 (human). The experiment in a line: SPR. On the technique in general: SPR reads the build-up and loss of mass on a sensor chip optically.
AMMO1 (human), sequence (heavy, as listed by the source, chain 1 of 2): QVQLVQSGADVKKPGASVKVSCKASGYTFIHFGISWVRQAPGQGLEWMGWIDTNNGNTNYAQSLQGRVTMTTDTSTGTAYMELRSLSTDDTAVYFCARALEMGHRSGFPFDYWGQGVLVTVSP
AMMO1 (human), sequence (light, as listed by the source, chain 2 of 2): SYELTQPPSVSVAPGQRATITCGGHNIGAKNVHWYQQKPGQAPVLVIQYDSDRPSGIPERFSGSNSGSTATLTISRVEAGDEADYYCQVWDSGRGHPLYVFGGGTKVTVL

AMMO1, human gH/gL-specific neutralizing antibody (recombinant IgG1) (human), sequence (heavy, as listed by the source, chain 1 of 2): as the sequence (heavy, as listed by the source, chain 1 of 2) above
AMMO1, human gH/gL-specific neutralizing antibody (recombinant IgG1) (human), sequence (light, as listed by the source, chain 2 of 2): as the sequence (light, as listed by the source, chain 2 of 2) above

For the substance “EBV gH/gL single chain with N310A in gH (from UniProt P03231;P03212) (complex)”, the Kd in test [1] was determined as 0.19 nM.

Substance “gH N310A/gL (from UniProt P03231;P03212) (complex)” yielded a koff with AMMO1 (human) of 9.6e-05 s⁻¹.

The Kd is the free concentration of one partner at which half of the binding sites on the other are occupied at equilibrium, for simple one-to-one binding. A word on the koff: it is a measure of how fast the partners let go of each other.

The values above are taken from paper PMC8595662.
